From paper PMC10700546, “Atg18 oligomer organization in assembled tubes and on lipid membrane scaffolds” (Nature Communications, 2023) come the findings set out here.

For orientation: stoichiometry N means a count of units in the complex or per binding partner.

Substitutions are numbered along the chain they refer to. Names and notes keep the numbering of the source.

The target of data set [1] is T1, Autophagy-related protein 18 (Atg18), wildtype (Saccharomyces cerevisiae), P43601.
T1 chain: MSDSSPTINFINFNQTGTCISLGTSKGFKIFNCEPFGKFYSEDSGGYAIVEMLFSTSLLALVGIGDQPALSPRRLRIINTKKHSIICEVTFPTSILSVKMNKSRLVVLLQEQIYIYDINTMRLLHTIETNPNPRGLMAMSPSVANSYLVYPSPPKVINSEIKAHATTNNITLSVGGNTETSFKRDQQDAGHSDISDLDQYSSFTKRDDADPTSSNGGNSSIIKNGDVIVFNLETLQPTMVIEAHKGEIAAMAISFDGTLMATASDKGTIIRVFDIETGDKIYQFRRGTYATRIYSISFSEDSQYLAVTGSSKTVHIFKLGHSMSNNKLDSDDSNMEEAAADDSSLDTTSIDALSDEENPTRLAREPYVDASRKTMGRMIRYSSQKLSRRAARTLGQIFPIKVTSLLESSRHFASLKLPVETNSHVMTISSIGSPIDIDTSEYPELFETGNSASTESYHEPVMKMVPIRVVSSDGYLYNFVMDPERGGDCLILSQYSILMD
In words: single-particle cryo-EM, 2D classification; 18 uM soluble Atg18 in high-salt buffer (50 mM TRIS, 500 mM NaCl, 10 mM KPO4, 1 mM DTT, pH 7.5); monomer and dimer classes. The note with it: remark: other sources report otherwise.

Data set [2] deals with the molecule itself. In words: cryo-EM structure; helical reconstruction of Atg18 tubes; 20 uM tube solution in tube buffer (20 mM HEPES, 100 mM KAc, 1 mM DTT, pH 7.2); self-assembly into a helical lattice.

B1: Autophagy-related protein 18 (Atg18), wildtype, P43601 1-500 (natural protein)
chain: T1 chain
Take B1: the stoichiometry N in data set [1] was determined as 2.

B2: Atg18-P72A/R73A (natural protein, Saccharomyces cerevisiae, UniProt P43601 1-500, looked up)
chain: T1 chain with P72A, R73A
notes: Atg18, Saccharomyces cerevisiae, Uniprot ID P43601, with P72A and R73A; Same construct as the wild type apart from the two substitutions; also called Atg18-PR72AA; PR72AA; source: E. coli BL21(DE3), purified (Ni-NTA, TEV cleavage, second Ni-NTA, gel filtration); not shown: 6xHis, N-terminal, cleaved
Take B2: the binding result in data set [2] is reported as “binds”.
